Patent US20100028862A1 (REPLIDYNE, published 2010)

What was measured:
DnaA (Escherichia coli) = conditions: minimum DnaA concentration giving plateau in origin reconstitution assay; ATP, Mg; gel shift and filter binding mentioned without values
[1] = tested on: DNA polymerase III core (alpha-epsilon-theta) (Yersinia pestis)
[2] = tested on: DnaG primase (Yersinia pestis)
[3] = tested on: PolC (Streptococcus pyogenes); conditions: reconstitution assay; template inferred
[4] = target: DNA polymerase III alpha-epsilon (DnaE/DnaQ) (Pseudomonas aeruginosa) (UniProt Q9HXZ1+G3XD54); conditions: E. coli DnaG-primed holoenzyme assay, 30 C
[5] = tested on: DnaG primase (Pseudomonas aeruginosa); conditions: reconstituted P. aeruginosa holoenzyme assay, 22 C
[6] = target: T1, P. aeruginosa χ subunit (untagged) (Pseudomonas aeruginosa, UniProt O68823 2-142); assay: co-expression and co-purification (ammonium sulfate, Q Sepharose)
T1 construct: holC, PA3832, 142 amino acids; also called HolC; chi
T1 sequence: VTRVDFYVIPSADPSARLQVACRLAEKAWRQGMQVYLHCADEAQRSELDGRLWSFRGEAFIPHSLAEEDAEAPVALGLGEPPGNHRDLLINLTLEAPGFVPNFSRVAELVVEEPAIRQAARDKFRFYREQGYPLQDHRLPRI

[7] = target: T2, N-terminally hexa-His-tagged P. aeruginosa χ (Pseudomonas aeruginosa, UniProt O68823 2-142); assay: Ni-NTA magnetic bead pull-down with immobilized His-tagged χ, imidazole elution
T2 construct: also called immobilized tagged P. aeruginosa χ; N-terminally His-tagged HolC; not shown: N-terminal hexa-His tag encoded by vector pA1-NB-KpnI
T2 sequence: T1 sequence

M13 ssDNA with 306-nt insert containing DnaA-box hairpin
activity (DnaA (Escherichia coli)): 76 nM

M13Gori ssDNA
activity [1]: 1.1e+07 U/mg
activity [2]: 5.8e+06 U/mg
activity [3]: 500000 U/mg
activity [4]: 4.1e+06 U/mg
activity [5]: 594000 U/mg

B1: PA4679N45 protein, P. aeruginosa DNA polymerase III holoenzyme ψ subunit (other)
chain: LIEEQRRRAFLGAMQITSWLPRQPLPFAAPSRPELLETPPREEPAVPVRARAAIDAPQARVPQAEAPASAPSVAPAAPVEGRGIPISLPKPGAPAAKKAEPVAPVEEAPAESPAVQAPPPRFALQLLQAGSCTLLVELPTGEPFASRDPGYLLLRDLLRAAGLPDSPRLIGEPVRWPLLARGNLDQGPQAALEFVQSFVAARMEESERSRCLWLVGLPAIRFAGEGDEGSLFRELQVDGLGATWAVPGLEALMEEPALKGELWRAMRRVRQRWSSEIQ
notes: also called HolD; psi
binding result [6]: binds
binding result [7]: binds
